“And” between values parts separate entries of the source, which are not always exact repeats. Equal values may be shown once.
Tests used:
[1] = target: Pup (Mycobacterium tuberculosis) (UniProt P9WHN5); test: anisotropy; settings: cited from earlier work
[2] = target: T1, Mycobacterium proteasomal ATPase Mpa, residues 1-234 (Mpa1-234) (Mycobacterium tuberculosis, UniProt P9WQN5 1-234); test: crystal structure
T1 sequence: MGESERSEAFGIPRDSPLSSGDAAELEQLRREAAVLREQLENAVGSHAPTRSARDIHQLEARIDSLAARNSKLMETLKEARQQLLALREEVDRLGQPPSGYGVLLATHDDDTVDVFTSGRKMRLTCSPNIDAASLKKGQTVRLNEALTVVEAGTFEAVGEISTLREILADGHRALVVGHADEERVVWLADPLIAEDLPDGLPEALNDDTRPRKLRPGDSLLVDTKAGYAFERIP

crystal structure = target: the molecule itself; test: crystal structure

In the case of Mpa (from UniProt P9WQN5), the Kd [1] is given as 4.2 µM and 3.4 µM.

B1: Full-length prokaryotic ubiquitin-like protein, Pup1-64-GGQ with a C-terminal non-cleavable His6-tag (natural protein)
chain: MAQEQTKRGGGGGDDDDIAGSTAAGQERREKLTEETDDLLDEIDDVLEENAEDFVRAYVQKGGQ
B1: binds [2].

B2: Mpa coiled-coil domain, residues 46-96 (Mpa46-96) (domain or fragment)
chain: SHAPTRSARDIHQLEARIDSLAARNSKLMETLKEARQQLLALREEVDRLGQ
In the case of B2, the “stoichiometry N” value (crystal structure) is reported as 2.

— paper PMC2988878 (Nature structural & molecular biology, 2010)
